From patent publication US12285502B2, “HER3 peptides for imaging and radiotherapy” (The General Hospital Corporation, priority 2016, dated 2025)
pIC50: −log10 of the molar value. Like-named read-outs stand apart in the source and are kept apart here. Blank lines part the entries; values can stand above or below the molecule they belong to.

Legend:
[1] = tested on: TNBC cell lines; conditions: criterion for cell lines considered sensitive (CAL-148, HCC-70, CAL-51, HCC-1395, HS-578T); cited from earlier work
[2] = tested on: 22RV1 (high HER3 expressing prostate cancer) tumors; design: species or system Nu/nu mice; conditions: mouse, in vivo
Experimental: (§1) The peptide was radio labeled with the radiometal ^68Ga eluted from a ^68Ge/^68Ga generator (iThemba, South Africa) in 0.05M HCl. The pH of the elution was adjusted to approximately 4 by 2M=2-[4-(2-hydroxyethyl) piperazin-1-yl]ethanesulfonic acid and 100 ng of peptide reacted with the elution for 10 min at room temperature. Peptide was purified from free ^68Ga by reverse phase C18 cartridge (Waters, Milford, MA) and purity determined by ITLC. The peptide was then prepared in normal saline to a specific activity of approximately 300 MBq/mg for injection into mice. Nu/nu mice bearing either 22RV1 (high HER3 expressing prostate cancer) or HCC-1954 (low HER3 expressing breast cancer) tumors were implanted in the right upper flank of mice and grown to approximately 5-7 mm. Radiolabeled HER3 peptide was injected intravenously and allowed to circulate for 1 h prior to PET imaging. PET images were acquired on an Inveon micro PET/CT (Siemens, Knoxville, TN) for 15 minutes in list mode, followed by CT acquisition. Images were constructed using 3D-MLEM (20 subsets) and corrected for scatter and randoms. The tumor and blood uptake was calculated in a 3D region of interest drawn around the tumor and heart, respectively, using CT guidance. Images were post-processed using VivoQuant (InviCRO, Boston, MA).

[3] = tested on: HCC-1954 (low HER3 expressing breast cancer) tumors; design: species or system Nu/nu mice; conditions: mouse, in vivo
Experimental: as §1

[4] = tested on: TNBC cell lines; conditions: criterion for cell lines considered sensitive (HDQ-P1, CAL-51, HCC-70, CAL-148, HCC-1395, HS-578T); cited from earlier work
[5] = mouse, in vivo, iv
Source text: Following PET acquisition, tumors and relevant organs were removed from mice, weighed, and total activity for each was quantified by a Wallac gamma counter (Perkin Elmer, Waltham, MA). […] The specific activity of the labeled peptide was 296±25.9 MBq/mg.

[6] = tested on: HCC-1954 cells (low HER3); assay: HER3 peptide cellular binding (streptavidin-HRP absorbance, fluorescent microscopy), HCC-1954; format: cell-based; conditions: fixed HCC-1954 cells, 250 nM peptide
Experimental: (§2) Two cell lines, MDA-MB-453 breast cancer cells which express moderate levels of HER3 and HCC-1954 cells which express low levels of HER3, were chosen to assess the ability of the peptide to discriminate between relatively close expression levels in vitro. Cells were seeded at a density of 1×10^5 cells/well in 96 well plates (Fisher) and grown overnight for 24 h in fetal bovine serum supplemented medium. HER3 peptide or a control peptide were added at 250 nM in media and incubated for 1 h at 37° C. Cells were washed 3× with PBS and bound peptide detected by addition of streptavidin-HRP. Cells were once again washed and bound peptide detected by addition of ABTS and absorbance read at 405 nm. Visual confirmation of peptide binding was confirmed by fluorescent microscopy. MDA-MB-453 and HCC-1954 cells were fixed in 10% formalin and dried onto microscope slides overnight. Following rehydration with TBS, slides were blocked with 2% BSA in TBS for 1 h prior to addition of peptide at a concentration of 250 nM in 0.1% TBST and incubation at room temperature for 1 h. Cells were washed 3× with 0.1% TBST and neutravidin-Alexafluor488 was added to cells and incubated at room temperature for 1 h. Cells were washed, mounted with Vectorshield mounting media with DAPI (Vector Labs, Burlingame, CA) and visualized by inverted microscope (Olympus, Tokyo, Japan).

[7] = tested on: MDA-MB-453 breast cancer cells (moderate HER3); assay: HER3 peptide cellular binding (streptavidin-HRP absorbance, fluorescent microscopy), MDA-MB-453; format: cell-based
Experimental: as §2

[8] = target: HER3 ECD (Homo sapiens, UniProt P21860); conditions: peptide ELISA absorbance
Experimental: (§3) The purity and molecular weight were determined by high performance liquid chromatography and mass spectrometry. […] Following blocking with 1% non-fat dry milk, increasing concentrations of peptide were incubated with target protein for 1 h at 37° C. Wells were washed with 0.1% TBST, and bound peptide detected by addition of HRP-conjugated streptavidin (Abeam, Cambridge, UK), washing and ABTS substrate incubation for 10 minutes. Absorbance at 405 nm was read by spectrophotometer. […] Plates were washed and bound peptide once again detected by addition of streptavidin-HRP and ABTS and absorbance read at 405 nm.

[9] = target: EGFR (Homo sapiens, UniProt P00533); conditions: 250 nM peptide, 405 nm
Experimental: as §3

[10] = tested on: human MDA-MB-453 tumors; design: species or system mice; conditions: mouse, in vivo
Experimental: Following imaging, mice were treated with 100 mg/kg of lapatinib every 12 hours for 48 hours following PET imaging. At the end of 48 hours, mice were imaged in the exact same manner as before treatment.

HER3 ECD, sequence (P21860 20-643 limits assumed): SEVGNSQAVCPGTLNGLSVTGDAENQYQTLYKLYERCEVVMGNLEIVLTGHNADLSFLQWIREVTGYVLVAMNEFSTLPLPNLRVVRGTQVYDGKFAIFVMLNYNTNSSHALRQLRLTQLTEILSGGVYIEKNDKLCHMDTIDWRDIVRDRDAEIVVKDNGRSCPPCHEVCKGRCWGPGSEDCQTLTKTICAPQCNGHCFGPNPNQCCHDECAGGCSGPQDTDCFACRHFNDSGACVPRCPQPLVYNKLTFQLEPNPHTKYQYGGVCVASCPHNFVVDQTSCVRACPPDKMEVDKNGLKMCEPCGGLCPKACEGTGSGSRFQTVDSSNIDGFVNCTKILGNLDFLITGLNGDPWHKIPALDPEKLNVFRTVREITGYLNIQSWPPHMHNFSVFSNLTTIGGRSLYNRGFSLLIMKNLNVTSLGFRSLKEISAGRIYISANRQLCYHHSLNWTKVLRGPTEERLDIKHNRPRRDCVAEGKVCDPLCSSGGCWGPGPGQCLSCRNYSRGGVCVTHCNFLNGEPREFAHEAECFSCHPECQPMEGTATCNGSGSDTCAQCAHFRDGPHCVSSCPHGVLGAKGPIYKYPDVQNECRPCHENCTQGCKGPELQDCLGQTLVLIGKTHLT

Molecule: CC(C)NC[C@@H](C(=O)N1CCN(c2ncnc3c2[C@H](C)C[C@H]3O)CC1)c1ccc(Cl)cc1 [GDC-0068]
pIC50 [1]: > 6.00

Molecule: CC(C)C[C@@H]1NC(=O)[C@@H](NC(=O)CNC(=O)CNC(=O)CNC(=O)CCNC(=S)Nc2ccc(CC3CN(CC(=O)O)CCN(CC(=O)O)CCN3CC(=O)O)cc2)CSSC[C@@H](C(=O)O)NC(=O)[C@H](CO)NC(=O)[C@H](CCCNC(=N)N)NC(=O)[C@H](Cc2ccccc2)NC(=O)[C@H](CCCCN)NC(=O)[C@H]([C@@H](C)O)NC(=O)[C@@H]2CCCN2C1=O (stereo partly drawn) [^68Ga-(NOTA-NCS)-HER3P1, ^68Ga-(NOTA-NCS)-beta A-G-G-G-C-L-P-T-K-F-R-S-C, metal not drawn]
off-target peptide accumulation [2]: minimal | tumor uptake by PET imaging [2]: high | standardized tumor to blood ratios (TBR) ([2]; iv): 1.60-3.32 | tumor uptake by PET imaging [3]: much lower levels | standardized tumor to blood ratios (TBR) ([3]; iv): 0.69-0.94

Molecule: CS(=O)(=O)N1CCN(Cc2cc3nc(-c4cccc5[nH]ncc45)nc(N4CCOCC4)c3s2)CC1 [GDC-0941]
pIC50 [4]: > 6.00

selectivity/specificity for HER3 over other proteins (EGFR, HER2, BSA) [8]: approximately 4 fold | selectivity/specificity for HER3 over other proteins (EGFR, HER2, BSA) ([8]; listed as displayed peptide conjugated to biotin): greater than 4 fold | absorbance of binding to EGFR [9]: 0.21±0.09
Molecule: C-L-P-T-K-F-R-S-C [HER3P1]
biodistribution, HER3+ tumors [5]: 0.50±0.18 % ID/g | biodistribution, intestines [5]: 0.48±0.15 % ID/g | biodistribution, kidneys [5]: 10.1±1.67 % ID/g | biodistribution, lungs [5]: 0.70±0.14 % ID/g | biodistribution, stomach [5]: 0.30±0.07 % ID/g | binding by fluorescent microscopy [6]: almost no visualization | cell binding absorbance ([7]; MDA-MB-453, 250 nM peptide, 1 h 37° C., 405 nm): 0.29±0.06 | binding by fluorescent microscopy ([7]; fixed MDA-MB-453 cells, 250 nM peptide): high binding | SUVmean [10]: 0.42±0.04
